Where “and” joins values, the source holds several entries; their conditions need not be identical. Identical values can stand only once.

The values that follow come from PMC9941103.

Experiment [1] deals with pre-assembled binary SNAP25:Synaptobrevin-2 complex (2:1) (UniProt P60881). Description: native MS; SNAP25 and Synaptobrevin-2 mixed 1:1; 200 mM ammonium acetate.
The target in experiment [2] is SNAP25(CtoS), cysteine-free variant of SNAP25 (UniProt P60881). Description: cross-linking; 10 µM of one protein alone, 0-1.5 mM BS3, 1 h at 25 °C; gel electrophoresis, Coomassie staining and western blot. For orientation: A western blot detects proteins with antibodies after separation by electrophoresis.
Experiment [3] concerns the target Synaptobrevin-2 variant lacking the transmembrane helix, Syb(1-96) (UniProt P63045). Nature of the experiment: native MS; SNAP25 and Synaptobrevin-2 mixed 1:2 and 2:1. Particulars: scale: SNAP25 per Synaptobrevin-2.
Sequence of UniProt P63045 (P63045 1-96, change not shown): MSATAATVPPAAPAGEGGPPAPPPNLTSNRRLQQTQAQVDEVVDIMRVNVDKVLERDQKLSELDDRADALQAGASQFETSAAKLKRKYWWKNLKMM
Experiment [4] addresses SNAP25(CtoS), cysteine-free variant of SNAP25 (UniProt P60881). Nature of the experiment: native MS; 10 µM of one protein alone, 200 mM ammonium acetate.
For experiment [5], the target named is Synaptobrevin-2 variant lacking the transmembrane helix, Syb(1-96) (UniProt P63045). Description: native MS; SNAP25 and Synaptobrevin-2 mixed 1:1; 200 mM ammonium acetate. Particulars: scale: SNAP25 per Synaptobrevin-2.
Experiment [6] has as its target T1, full-length Complexin-1, P63041.
T1 chain: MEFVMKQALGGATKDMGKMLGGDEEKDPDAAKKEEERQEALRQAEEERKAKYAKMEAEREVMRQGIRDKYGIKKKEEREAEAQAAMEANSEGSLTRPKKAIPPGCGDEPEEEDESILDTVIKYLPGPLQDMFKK
Nature of the experiment: native MS; 10 µM of one protein alone, 200 mM ammonium acetate. Particulars: remark: other sources report otherwise.

By stoichiometry N is commonly meant the number of molecules, sites or subunits per partner or assembly. For the molecule “pre-assembled binary SNAP25:Synaptobrevin-2 complex (2:1) (from UniProt P60881 1-206; P63045 1-96)”, the stoichiometry N in experiment [1] was 2.
For the molecule “SNAP25(CtoS), cysteine-free variant of SNAP25 (from UniProt P60881 1-206)”, the stoichiometry N in experiment [2] is < 5.
“SNAP25(CtoS), cysteine-free variant of SNAP25 (from UniProt P60881 1-206) (natural protein)”: the stoichiometry N was 2 in experiment [3]; 2 and 3 in experiment [4]; 2 in experiment [5].

B1: full-length Complexin-1, P63041 1-134 (natural protein)
chain: MEFVMKQALGGATKDMGKMLGGDEEKDPDAAKKEEERQEALRQAEEERKAKYAKMEAEREVMRQGIRDKYGIKKKEEREAEAQAAMEANSEGSLTRPKKAIPPGCGDEPEEEDESILDTVIKYLPGPLQDMFKK
Consider B1, for which, in experiment [6], the stoichiometry N is 2 and 3.
